Results as given in article PMC8477557 (2021).

Target: αCD123
Assay: SPR

B1: CD123 extracellular domain (domain or fragment)
chain: TKEDPNPPITNLRMKAKAQQLTWDLNRNVTDIECVKDADYSMPAVNNSYCQFGAISLCEVTNYTVRVANPPFSTWILFPENSGKPWAGAENLTCWIHDVDFLSCSWAVGPGAPADVQYDLYLNVANRRQQYECLHYKTDAQGTRIGCRFDDISRLSSGSQSSHILVRGRSAAFGIPCTDKFVVFSQIEILTPPNMTAKCNKTHSFMHWKMRSHFNRKFRYELQIQKRMQPVITEQVRDRTSFQLLNPGTYTVQIRARERVYEFLSAWSTPQRFECDQEEGANTRAWR
  Kd: 1.2 nM
